Patent US20200247894A1 (Regeneron, published 2020)

T1: Macaca fascicularis IL2Rγ extracellular domain expressed with a C-terminal myc-myc-hexahistidine tag (Macaca fascicularis)
T1 construct: also called mfIL-2Rg-MMH; mfIL-2RG-MMH
T1 chain: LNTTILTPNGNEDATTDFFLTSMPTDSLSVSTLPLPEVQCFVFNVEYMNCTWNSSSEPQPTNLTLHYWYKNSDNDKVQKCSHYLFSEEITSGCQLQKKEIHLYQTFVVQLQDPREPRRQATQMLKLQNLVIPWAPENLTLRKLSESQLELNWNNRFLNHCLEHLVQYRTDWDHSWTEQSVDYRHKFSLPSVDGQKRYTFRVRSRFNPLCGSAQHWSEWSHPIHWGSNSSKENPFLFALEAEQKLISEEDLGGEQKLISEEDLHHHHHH

T2: Human IL2Rγ extracellular domain expressed with a C-terminal myc-myc-hexahistidine tag (human)
T2 construct: also called hIL-2Rg-MMH; hIL-2RG-MMH
T2 chain: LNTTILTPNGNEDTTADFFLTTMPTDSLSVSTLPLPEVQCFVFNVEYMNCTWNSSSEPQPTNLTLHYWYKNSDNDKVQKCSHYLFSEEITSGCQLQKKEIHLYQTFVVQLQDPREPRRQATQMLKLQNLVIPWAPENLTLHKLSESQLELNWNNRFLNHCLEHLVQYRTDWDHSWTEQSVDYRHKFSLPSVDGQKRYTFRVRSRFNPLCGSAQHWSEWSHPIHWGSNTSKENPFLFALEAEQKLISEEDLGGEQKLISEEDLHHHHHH


How the values were obtained:
[1] = biological target: T1, Macaca fascicularis IL2Rγ extracellular …; experiment: SPR Biacore 4000, mAb captured by anti-hFc, 37C, dissociation in PBS-T pH 7.4
Description: (§1) The dissociation rate constant (kd) for binding of IL-2Rγ reagents to purified anti-IL2Rγ monoclonal antibodies was determined using a real-time surface plasmon resonance based Biacore 4000 biosensor platform. […] The CM5 Biacore sensor surface derivatized by amine coupling with monoclonal mouse anti-human Fc antibody (GE, Catalog # BR-1008-39) was used to capture anti-IL2Rγ monoclonal antibodies expressed with human IgG4 Fc. All the IL2Rγ reagents were expressed with a C-terminal myc-myc-hexahistidine tag (subsequently referred to with a -MMH suffix). […] The dissociation of bound IL-2Rg-MMH was performed in PBS-T-pH7.4 or PBS-T-pH6.0 running buffers for 6 minutes.
(§2) Dissociation rate constants (kd) in two running buffers were determined by fitting the real-time binding sensorgrams to a 1:1 binding model using Scrubber 2.0c curve-fitting software. Values of dissociation rate for […] mAb binding to hIL-2RG-MMH and mfIL-2RG-MMH at 25° C. and 37° C. in PBS-T-pH7.4 and PBS-T-pH6.0 is shown in Table 2-1 through Table 2-8.

[2] = biological target: T2, Human IL2Rγ extracellular domain …; experiment: SPR Biacore 4000, mAb captured by anti-hFc, HBS-ET, 25C
Description: (§3) Equilibrium dissociation constants (KD values) for IL-2Rγ binding to purified anti-IL2Rγ monoclonal antibodies were determined using a Biacore 4000 instrument equipped with a real-time surface plasmon resonance biosensor. All binding studies were performed in 10 mM HEPES, 150 mM NaCl, 3 mM EDTA, and 0.05% v/v Surfactant Tween-20, pH 7.4 (HBS-ET) running buffer at 25° C. and 37° C. The Biacore sensor surface was first derivatized by amine coupling with a monoclonal mouse anti-human Fc antibody (GE, # BR-1008-39) to capture anti-IL2Rγ monoclonal antibodies.
(§4) The dissociation of monoclonal antibody bound IL2Rγ reagents were monitored for 8-10 minutes in HBS-ET running buffer. Kinetic association (kₐ) and dissociation (kd) rate constants were determined by fitting the real-time sensorgrams to a 1:1 binding model using Scrubber 2.0c curve fitting software. Binding dissociation equilibrium constants (KD) and dissociative half-lives (t_{1/2}) were calculated from the kinetic rate constants as: […]

[3] = biological target: T1, Macaca fascicularis IL2Rγ extracellular …; experiment: as above
Description: as §3, §4

[4] = biological target: T2, Human IL2Rγ extracellular domain …; experiment: SPR Biacore 4000, mAb captured by anti-hFc, HBS-ET, 37C
Description: as §3, §4

[5] = biological target: T1, Macaca fascicularis IL2Rγ extracellular …; experiment: SPR Biacore 4000, mAb captured by anti-hFc, 37C, dissociation in PBS-T pH 6.0
Description: as §1, §2

Row | 100 nM Ag Bound (RU) [1] [RU] | koff [1] [s⁻¹] | t1/2 [1] [min] | 100 nM Ag Bound [2] [RU] | Kd [2] [nM] | koff [2] [s⁻¹] | kon [2] [M⁻¹ s⁻¹] | t1/2 [2] [min] | 100 nM Ag Bound [3] [RU] | Kd [3] [nM] | koff [3] [s⁻¹] | kon [3] [M⁻¹ s⁻¹] | t1/2 [3] [min] | 100 nM Ag Bound [4] [RU] | Kd [4] [nM] | koff [4] [s⁻¹] | kon [4] [M⁻¹ s⁻¹] | t1/2 [4] [min] | 100 nM Ag Bound (RU) [5] [RU] | koff [5] [s⁻¹] | Binder | also measured
1 | 143 | 0.000542 | 21 | 67 | 1.23 | 0.000316 | 257000 | 37 | 58 | 2.36 | 0.000269 | 114000 | 43 | 57 | 4.52 | 0.00174 | 386000 | 7 | 134 | 0.00155 | H4H12858P (antibody, human IgG4 S228P, kappa, V domains shown, anti-IL2Rγ monoclonal antibody expressed with human IgG4 Fc; also called REGN9433) VH: EVQLVESGGDLVQPGGSLRLSCTASGFIFRNYAMNWVRQAPGKGLEWLSGILGSNDNTYYVDSVKGRFTISRDNSRNTLYLQMNSLRAEDSAVYYCAKGDAGGFDYWGQGTLVTVSS VL: DVVMTQSPLSLPVILGQPASISCRSSQSLVSSDGNTYLNWFQQRPGQSPRRLIYKVSNRDSGVPDRFSGSGSGTDFTLKISRVEAEDVGAYYCMQGSYWPPTFGQGTKLEIKR | t1/2 [5]: 7 min
2 | 76 | 0.000894 | 13 | 42 | 11.2 | 0.000691 | 62000 | 17 | 34 | 14.1 | 0.000633 | 44900 | 18 | 24 | 33.4 | 0.00348 | 104000 | 3.3 | 54 | 0.00296 | H4H12913P2 (antibody, human IgG4 S228P, kappa, V domains shown, anti-IL2Rγ monoclonal antibody expressed with human IgG4 Fc) VH: EVQLVESGGGVVRPGGSLRLSCAASGFTFDDYGMSWVRQAPGKGLEWISSINRNGGSADYADSVKGRFTISRDNAKNSLFLQMSSLRAEDTALYHCASGEFRFDYWGQGTLVTVSS VL: not shown | t1/2 [5]: 4 min
3 | 47 | 0.00397 | 2.9 | 27 | 87.6 | 0.00321 | 36600 | 4 | 17 | 126 | 0.00507 | 40300 | 2.3 | 18 | 187 | 0.0129 | 69000 | 0.9 | 31 | 0.0123 | H4H12859P (antibody, human IgG4 S228P, kappa, V domains shown, anti-IL2Rγ monoclonal antibody expressed with human IgG4 Fc) VH: QVQLVQSGAEVKKPGASVRVSCKASGYTFTDYDIHWVRQAPGHGLEWMGWINPNSGGTNYAQKFQGRVTMTRDTSISTVYMDLSRLRSDDTAVYYCARADYSSSYYYYGMDVWGQGTTVTVSS VL: not shown | t1/2 [5]: 0.9 min
4 | 17 | – | – | 12 | 336 | 0.0575 | 171000 | 0.2 | 26 | 143 | 0.014 | 97800 | 0.8 | 7 | 113 | 0.0691 | 611000 | 0.2 | 13 | – | H4H13545P2 (antibody, human IgG4 S228P, kappa, V domains shown, anti-IL2Rγ monoclonal antibody expressed with human IgG4 Fc) VH: QVQLQQSGPGLVKPSQTLSLTCDISGDSVSSNIATWNWIRQSPSRGLEWLGRTYYRSKWYKDYAVSVKSRITINPDTSKNQFSLQVNSVTPEDTAVYYCARMTGPRYYFEYWGQGTLVTVSS VL: not shown | –
5 | 185 | 0.000693 | 17 | 79 | 1.3 | 0.000386 | 297000 | 30 | 76 | 1.64 | 0.000386 | 235000 | 30 | 44 | 2.58 | 0.00105 | 407000 | 11 | 146 | 0.00344 | H4H12922P2 (antibody, human IgG4 S228P, kappa, V domains shown, anti-IL2Rγ monoclonal antibody expressed with human IgG4 Fc; also called REGN7256) VH: QVQLVESGGGVVKPGGSLRLSCAASGFTFSNSGIHWVRQAPGKGLEWVALISYAGSNKYYADSVKGRFTISRDNSKNTLSLQMNSLRAEDTAVYYCAKEVWTGTYDSFDMWGRGTMVTVSS VL: not shown | t1/2 [5]: 3.4 min
6 | 133 | 0.00267 | 4 | 78 | 5.38 | 0.00174 | 322000 | 7 | 73 | 6.58 | 0.00165 | 251000 | 7 | 26 | 18 | 0.0157 | 871000 | 0.7 | 126 | 0.0124 | H4H12924P2 (antibody, human IgG4 S228P, kappa, V domains shown, anti-IL2Rγ monoclonal antibody expressed with human IgG4 Fc) VH: EVQLVESGGGLVQPGRSLRLSCAASGFTLEDYAMHWVRQAPGKGLEWVSGISWNRGSTGYADSVKGRFTISRDNAKNSLYLQMTSLRAEDTALYYCAKGFYSMDVWGQGTTVTVSS VL: not shown | t1/2 [5]: 0.9 min
7 | 177 | 0.000606 | 19 | 91 | 1.7 | 0.000384 | 226000 | 30 | 81 | 1.91 | 0.00036 | 189000 | 32 | 77 | 4.11 | 0.00151 | 367000 | 8 | 141 | 0.00208 | H4H12863P (antibody, human IgG4 S228P, kappa, V domains shown, anti-IL2Rγ monoclonal antibody expressed with human IgG4 Fc) VH: QVQLVESGGGVVQPGRSLRLSCTASGFTFRSYDMYWVRQAPGKGLEWVSVITYDGNNKYYADSVKGRFTISRDNSKNTLFLQMSSLRPEDTAVYYCAKRGLIWVGESFDYWGQGTLVTVSS VL: DIQMTQSPSTLSASVGDRVTITCRASQSINSWLAWYQQKPGKAPNLLIYKASSLESGVPSRFSGSGSGTEFTLTISSLQPDDFATYYCQQYKSYSWTFGQGTKVEIKR | t1/2 [5]: 6 min
8 | 143 | 0.00102 | 11 | 77 | 5.03 | 0.001 | 199000 | 12 | 72 | 5.19 | 0.000905 | 174000 | 13 | 61 | 10.6 | 0.00266 | 250000 | 4 | 141 | 0.00227 | H4H12871P (antibody, human IgG4 S228P, kappa, V domains shown, anti-IL2Rγ monoclonal antibody expressed with human IgG4 Fc; also called REGN9434) VH: QVQLQESGPGLVKPSQTLSLTCTVSGGSITSGGYYWSWIRQYPGQGLEWIGYIYYSGKTYYNPSFTSRITISVDTSKKQFSLKMSSVTAADTAVYYCARAGFTSSNGWFDPWGQGTLVTVSS VL: DIQMTQSPSSLSASVGDRVTITCRASQNIRSYLNWYQQKPGKAPKLLIYSASSLQSGVPSRFSGSGSGTDFTLTISSLQPEDFPTYYCQQTYSSPWTFGPGTKVEIKR | t1/2 [5]: 5 min
